Source: patent US20210221879A1

Experiments:
[1] = target: BSA cross-linked with A-peak (A-peak-BSA) (bovine) (UniProt P02769); assay: SPR, Biacore T200; A-peak-BSA amine-coupled to a CM5 chip (72 RU), PB-1 at 0.1953 to 50 nM, 1:1 binding model
[2] = target: BSA cross-linked with A-peak (A-peak-BSA) (bovine) (UniProt P02769); assay: cross-competition ELISA: unlabeled antibody varied (0.049 to 50 µg/mL), HRP-labeled SJ-5 as competitor on immobilised A-peak-BSA, absorbance 450-650 nm
[3] = target: BSA modified with the novel structure derived from Glycer-AGEs (GAL13-BSA) (bovine) (UniProt P02769); assay: SPR, Biacore T200; GAL13-BSA amine-coupled to a CM5 chip
[4] = target: Bovine serum albumin containing AGEs derived from glyceraldehyde (Glycer-AGEs-BSA) (bovine) (UniProt P02769); assay: SPR, Biacore T200; Glycer-AGEs-BSA amine-coupled to a CM5 chip, antibody at 0 to 400 nM
[5] = target: BSA modified with the novel structure derived from Glycer-AGEs (GAL13-BSA) (bovine) (UniProt P02769); assay: direct ELISA: POD-labeled antibody on immobilised GAL13-BSA (1 µg/mL), absorbance at 490 nm

B1: novel monoclonal antibody PB-1 (antibody, V domains shown)
VH: EVRLQQSGPELVKPGTSVKISCKASGYSFTGYYMHWVKQSPVKSLEWIGRIIPYNGATSYNQNFKDKASLTVDKSSRTAYMDLHSLTSEDSAVYYCARSRYYGRAPYYFDYWGQGTTLTVSS
VL: DVVVTQTPLSLPVSLGDQASISCRSSQSIVHSNGNTYLEWYLQKPGQSPKLLIYKVSNRFSGVPDRISGSGSGTDFTLKISRVEAGDLGVYSCFQGSHVPFTFGSGTKLEIK
[1]
  Kd: 4.15 nM
[2]
  IC50 (read off the curve): 2 µg/mL

B2: novel monoclonal antibody SJ-5 (antibody, V domains shown)
VH: EVMLVESGGRLVKPGGSLKLSCAASGFTFSSYGMSWVRQTPEKRLEWVATISGGGSYTYYPDSVKGRFTISRDNVKNNLYLQMSSLRSEDTALYYCARRGAYGDYGWFAYWGQGTLVTVSA
VL: DIVLTQSPATLSVTPGDSVSLSCRASQSINNNLHWYQQKSHESPRLLIKCASQSISGIPSRFSGSGSGTDFTLSINSVETEDFGMYFCQQSNSWPLTFGAGTKLELK
[3]
  Kd: 87.5 nM
[4]
  Kd: 57.4 nM
[5]
  EC50 (read off the curve): 0.3 µg/mL
